Measurements from US20090092595A1, “Suppression of sPLA2-integrin binding for treating an inflammatory condition” (REGENTS OF THE UNIVERSITY OF CALIFORNIA, priority 2007, published 2009).

Columns and labels:
[1] = test system: α4-K562 cells; experiment: Proliferation of α4-K562 cells (MTS assay); assay type: cell-based, human; settings: serum-starved 48 h, stimulated 48 h
Procedure: (§1) Cells were serum-starved for 48 h and stimulated with sPLA2-IIA for 48 h. Cell proliferation was determined by MTS assays. Data is shown as means+/−SEM of triplicate experiments. α4- and αvβ3-K562 cells proliferated faster than mock-K562 cells. […] Serum-starved cells were stimulated with wt or mutant sPLA2-IIA (0.5 μg/ml) for 48 h. Data is shown as means+/−SEM of triplicate experiments. α4-K562 and αvβ3-K562 cells grew faster than mock K562 cells with wt and H47Q sPLA2-IIA (*P<0.05 by t-test).
(§2) Cell proliferation and MAP kinase activation K562 cells and human monocytic lymphoma U937 cells were maintained in RPM11640 medium supplemented with 10% FCS. Cells were plated in 96-well plates (1×10^4 cells/well), and serum-starved for 48 h at 37° C. in 5% CO2 atmosphere. Cells were then treated with or without sPLA2-IIA in medium without serum for 48 h. Cell proliferation was determined by MTS assays using the Aqueous Cell Proliferation Assay Kit (Promega). For MAP kinase activation assays, cells were serum starved in RPMI1640 medium supplemented with 0.4% FCS for 24 h, and stimulated with Wt and mutant sPLA2-IIA (0.5 μg/ml) for 10 min at 37° C. ERK1/2 activation was measured as described (Mori, S. et al., J Biol Chem, in press (2008)).

[2] = test system: fibronectin domains 8-11; experiment: Adhesion of U937 cells to the cell-binding domain of fibronectin in the presence of sPLA2-IIA; assay type: cell-based, human; settings: increasing concentrations of sPLA2-IIA, 1 h, 37° C.
Procedure: (§3) FIG. 5. sPLA2-IIA binding to integrin α4β1. a) Cells expressing recombinant α4β1 adhered to wt sPLA2-IIA better than cells expressing other recombinant integrins. We used transfected K562 cells clonally express different human integrins for adhesion assays. Low background adhesion to BSA was subtracted. […] Wells of 96-well microtiter plate were coated with VCAM-1 and FN-GST, and incubated with U937 cells (1×10^4 cells/plate) in the presence of the increasing concentrations of sPLA2-IIA for 1 h at 37° C. Adherent cells were quantified using endogenous phosphatase after gently rinsing the well to remove unbound cells. Data is shown as means+/−SEM of triplicate experiments. *P=0.0101 and **P<0.0001 by t-test. c) Amino acid sequence in the α4 subunit that is critical for VCAM-1 and CS-1 binding is also critical for sPLA2-IIA binding. CHO cells that clonally express wt or mutant α4 (Irie, A. et al., Embo J, 14(22): 5550-5556 (1995)) were used for adhesion assays. Data is shown as means+/−SEM of triplicate experiments. Similar results were obtained using K562 cells expressing α4 mutants (not shown).
(§4) Other methods We performed docking simulation of interaction between sPLA2-IIA and integrin αvβ3 using the AutoDock3 as previously described (Mori, S. et al., J Biol Chem, in press (2008)). […]

[3] = target: T1, integrin α4β1 (Homo sapiens, UniProt P05556+P13612); experiment: Adhesion of α4-K562 cells (recombinant α4β1) to immobilized sPLA2-IIA; assay type: cell-based; settings: compared with mock-transfected K562 cells
T1 construct: K562 cells have endogenous α5β1; expressed in transfected cells; host or cells: K562
T1 sequence (P13612 34-1032): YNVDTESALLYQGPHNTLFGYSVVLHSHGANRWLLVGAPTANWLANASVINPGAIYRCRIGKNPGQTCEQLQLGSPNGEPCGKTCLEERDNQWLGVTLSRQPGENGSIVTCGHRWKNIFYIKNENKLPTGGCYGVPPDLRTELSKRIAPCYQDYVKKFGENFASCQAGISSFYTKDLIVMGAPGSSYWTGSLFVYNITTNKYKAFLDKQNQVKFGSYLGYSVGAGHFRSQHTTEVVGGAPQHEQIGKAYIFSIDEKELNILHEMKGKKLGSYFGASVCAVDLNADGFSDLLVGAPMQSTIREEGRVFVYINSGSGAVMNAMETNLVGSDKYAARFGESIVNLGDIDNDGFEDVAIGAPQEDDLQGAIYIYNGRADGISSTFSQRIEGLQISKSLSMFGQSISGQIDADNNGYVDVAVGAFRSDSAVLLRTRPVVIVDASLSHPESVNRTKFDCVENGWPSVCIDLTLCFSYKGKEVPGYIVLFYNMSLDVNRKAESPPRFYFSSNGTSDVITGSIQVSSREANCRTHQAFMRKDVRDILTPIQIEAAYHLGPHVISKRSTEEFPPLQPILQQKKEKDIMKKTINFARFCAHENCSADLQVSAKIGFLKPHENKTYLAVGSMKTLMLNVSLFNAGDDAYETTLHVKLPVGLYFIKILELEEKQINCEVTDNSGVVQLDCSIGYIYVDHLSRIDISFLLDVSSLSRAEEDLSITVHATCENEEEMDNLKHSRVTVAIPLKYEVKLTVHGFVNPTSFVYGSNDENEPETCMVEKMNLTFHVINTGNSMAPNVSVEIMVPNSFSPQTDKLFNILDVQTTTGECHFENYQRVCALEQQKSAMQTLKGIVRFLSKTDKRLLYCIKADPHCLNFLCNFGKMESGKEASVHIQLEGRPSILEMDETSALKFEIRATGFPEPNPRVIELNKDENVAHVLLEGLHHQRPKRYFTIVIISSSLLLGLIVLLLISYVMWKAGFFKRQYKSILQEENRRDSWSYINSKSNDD
T1 sequence (P05556 21-798): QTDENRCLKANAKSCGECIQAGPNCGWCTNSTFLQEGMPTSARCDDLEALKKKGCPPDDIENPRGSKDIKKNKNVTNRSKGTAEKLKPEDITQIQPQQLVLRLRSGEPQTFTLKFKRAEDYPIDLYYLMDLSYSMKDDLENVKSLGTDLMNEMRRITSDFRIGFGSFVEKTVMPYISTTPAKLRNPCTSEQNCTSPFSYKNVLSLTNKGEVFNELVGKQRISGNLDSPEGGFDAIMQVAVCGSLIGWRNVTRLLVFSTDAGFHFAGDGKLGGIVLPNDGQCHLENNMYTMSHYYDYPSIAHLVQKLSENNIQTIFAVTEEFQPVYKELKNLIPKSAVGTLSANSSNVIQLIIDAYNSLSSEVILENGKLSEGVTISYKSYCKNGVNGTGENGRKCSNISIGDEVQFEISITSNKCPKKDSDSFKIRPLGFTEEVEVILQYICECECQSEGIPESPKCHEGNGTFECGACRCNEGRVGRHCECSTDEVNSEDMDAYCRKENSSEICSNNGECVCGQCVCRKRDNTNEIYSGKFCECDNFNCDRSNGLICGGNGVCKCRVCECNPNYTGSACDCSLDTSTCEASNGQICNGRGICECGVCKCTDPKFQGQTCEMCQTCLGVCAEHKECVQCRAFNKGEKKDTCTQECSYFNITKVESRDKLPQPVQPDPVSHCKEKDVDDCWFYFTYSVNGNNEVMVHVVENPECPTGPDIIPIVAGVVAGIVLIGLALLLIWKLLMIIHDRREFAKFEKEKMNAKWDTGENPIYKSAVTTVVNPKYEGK
Procedure: as §3, §4

[4] = test system: mock-transfected K562 cells; experiment: Proliferation of mock-transfected K562 cells (MTS assay); assay type: cell-based, human; settings: serum-starved 48 h, stimulated 48 h
Procedure: as §1, §2

[5] = test system: ERK1/2; experiment: MAP kinase (ERK1/2) activation in U937 cells, western blotting; assay type: cell-based, human; settings: 0.5 μg/ml, 10 min, 37° C.
Procedure: (§5) U937 cells (αvβ3+, α4β1+) were plated in wells of 96-well plates (10,000 cells/well), and serum-starved for 48 h. After treatment with wt or mutant sPLA2-IIA for 48 h, we measured cell proliferation by MTS assays. […] U937 cells were serum-starved for 24 h, and stimulated with wt and mutant sPLA2-IIA (0.5 μg/ml) for 10 min at 37° C. Cell lysates were analyzed by western blotting with anti-phospho ERK1/2 or anti-ERK1/2 antibodies. The blot is representative of three independent experiments.
as §2

[6] = target: T2, soluble integrin αvβ3 (Homo sapiens, UniProt P05106+P06756); experiment: Binding of soluble αvβ3 to immobilized sPLA2-IIA (ELISA-type assay); settings: immobilized protein, 20 μg/ml coating
T2 construct: Recombinant soluble αvβ3 was synthesized as previously described; made in house
T2 sequence (P06756 31-992 limits assumed): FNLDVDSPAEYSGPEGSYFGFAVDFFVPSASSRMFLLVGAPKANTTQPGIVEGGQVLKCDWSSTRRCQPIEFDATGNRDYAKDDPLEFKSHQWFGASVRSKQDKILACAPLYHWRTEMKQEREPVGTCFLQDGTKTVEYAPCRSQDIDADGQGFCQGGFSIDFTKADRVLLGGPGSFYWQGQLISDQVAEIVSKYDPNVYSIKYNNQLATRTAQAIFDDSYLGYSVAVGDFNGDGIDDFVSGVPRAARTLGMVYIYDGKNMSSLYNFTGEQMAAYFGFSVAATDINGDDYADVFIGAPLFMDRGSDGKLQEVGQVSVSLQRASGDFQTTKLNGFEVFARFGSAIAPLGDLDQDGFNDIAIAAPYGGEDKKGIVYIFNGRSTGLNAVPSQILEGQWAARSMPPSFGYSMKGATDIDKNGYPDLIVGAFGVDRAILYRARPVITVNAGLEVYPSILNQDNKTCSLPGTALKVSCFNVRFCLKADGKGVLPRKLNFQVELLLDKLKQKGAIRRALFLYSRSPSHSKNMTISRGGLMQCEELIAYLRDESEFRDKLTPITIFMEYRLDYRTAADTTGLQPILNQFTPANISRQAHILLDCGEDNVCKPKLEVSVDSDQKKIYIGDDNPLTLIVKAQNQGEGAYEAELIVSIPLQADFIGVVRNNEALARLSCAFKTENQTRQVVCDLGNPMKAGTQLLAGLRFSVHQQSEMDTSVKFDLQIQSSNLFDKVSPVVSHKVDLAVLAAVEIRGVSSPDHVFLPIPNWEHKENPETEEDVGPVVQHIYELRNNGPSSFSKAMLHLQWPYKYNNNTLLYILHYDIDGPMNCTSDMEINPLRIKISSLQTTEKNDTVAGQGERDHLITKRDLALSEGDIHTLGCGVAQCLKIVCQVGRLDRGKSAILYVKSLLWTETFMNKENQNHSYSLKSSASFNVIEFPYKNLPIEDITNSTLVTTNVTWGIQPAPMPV
T2 sequence (P05106 27-718 limits assumed): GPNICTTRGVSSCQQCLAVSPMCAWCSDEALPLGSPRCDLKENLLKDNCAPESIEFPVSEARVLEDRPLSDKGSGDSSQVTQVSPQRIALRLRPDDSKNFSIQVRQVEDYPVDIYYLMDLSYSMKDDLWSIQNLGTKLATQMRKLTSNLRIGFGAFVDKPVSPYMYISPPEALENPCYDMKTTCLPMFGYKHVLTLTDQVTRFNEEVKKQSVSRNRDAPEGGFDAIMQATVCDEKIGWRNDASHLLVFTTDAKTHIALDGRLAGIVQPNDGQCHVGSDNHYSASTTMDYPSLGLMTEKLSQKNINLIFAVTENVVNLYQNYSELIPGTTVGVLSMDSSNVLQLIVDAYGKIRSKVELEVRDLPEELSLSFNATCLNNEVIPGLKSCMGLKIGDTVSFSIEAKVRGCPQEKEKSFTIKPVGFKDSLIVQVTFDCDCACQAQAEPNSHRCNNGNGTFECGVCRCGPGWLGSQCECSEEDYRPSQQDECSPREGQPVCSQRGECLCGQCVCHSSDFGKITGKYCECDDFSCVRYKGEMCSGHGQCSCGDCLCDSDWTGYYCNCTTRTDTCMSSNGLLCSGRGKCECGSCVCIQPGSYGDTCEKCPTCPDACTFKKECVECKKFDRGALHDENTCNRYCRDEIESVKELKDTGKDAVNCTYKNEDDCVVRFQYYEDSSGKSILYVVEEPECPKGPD
Procedure: Binding of soluble αvβ3 to immobilized sPLA2-IIA sPLA2-IIA was immobilized to wells of 96 well microtiter plates and the remaining protein-binding sites were blocked by BSA as described (Mori, S. et al., J Biol Chem, 283:18066-18075 (2008)). Soluble recombinant αvβ3 at 5 μg/ml in Hepes-Tyrodes buffer supplemented with 1 mM MnCl2 was added to the well and incubated for 2 h. Bound αvβ3 was measured using anti-integrin β3 (mAb AV-10) followed by HRP-conjugated goat anti-mouse IgG and peroxidase substrates.

[7] = test system: U937 human monocytic lymphoma cells; experiment: Proliferation of U937 cells (MTS assay); assay type: cell-based; settings: serum-starved 48 h, treated 48 h
Procedure: as §5, §2

[8] = target: T3, integrin αvβ3 (Homo sapiens, UniProt P05106+P06756); experiment: Surface plasmon resonance study of sPLA2-IIA binding to immobilized soluble integrin αvβ3; settings: SPR, soluble αvβ3 immobilized on sensor chip, 1 mM Mn2+; listed as human sPLA2-IIA
T3 construct: Recombinant soluble αvβ3 was synthesized as previously described; made in house
T3 sequence (P06756 31-992 limits assumed): as the sequence (P06756 31-992 limits assumed) above
T3 sequence (P05106 27-718 limits assumed): as the sequence (P05106 27-718 limits assumed) above
Procedure: Surface plasmon resonance study Recombinant soluble integrin αvβ3 was immobilized to Biacore Sensor chip CM5 (Biacore, Piscataway, N.J.) by the standard amine coupling method. Two-fold serial diluted sPLA2-IIA and its mutants R74E/R100E (ranging from 2 nM to 500 pM) and H47Q (ranging from 4 nM to 1 nM) in running buffer HBS-P buffer containing 1 mM of Mn^2+ were injected for 3 min at the flow rate of 50 μL/min. Then the sensor chip was washed with the running buffer alone at the same flow rate for another 5 min (the dissociation phase). Two consecutive one-minute injections of 0.5 M, pH 8 EDTA solution at the same flow rate were used to regenerate the chip for another cycle of injection. The resonance unit elicited from the reference flow cell was subtracted from the resonance unit elicited from the integrin flow cell to eliminate the non-specific protein-flow cell interaction and the bulk refractive index effect. The recorded binding curves were fitted with the “1:1 binding with drifting baseline model” by using the Biaevaluation Version 4.1.

[9] = target: T4, α4β1 binding to VCAM-1 (Homo sapiens, UniProt P05556+P13612); experiment: Adhesion of U937 cells to VCAM-1 in the presence of sPLA2-IIA; assay type: cell-based; settings: increasing concentrations of sPLA2-IIA, 1 h, 37° C.
T4 construct: integrin α4β1, a major integrin in U937 cells; endogenous in cells; host or cells: U937
T4 sequence (P13612 34-1032): as the sequence (P13612 34-1032) above
T4 sequence (P05556 21-798): as the sequence (P05556 21-798) above
Procedure: as §3, §4

B1: wt sPLA2-IIA: Secretory phospholipase A2 group IIA, wild type, recombinant from bacteria BL21, refolded (protein)
chain: NLVNFHRMIKLTTGKEAALSYGFYGCHCGVGGRGSPKDATDRCCVTHDCCYKRLEKRGCGTKFLSYKFSNSGSRITCAKQDSCRSQLCECDKAAATCFARNKTTYNKKYQYYSNKHCRGSTPRC
modifications: left off: small tags and cut ends
proliferation of α4-K562 cells [1]: induced proliferation
cell adhesion to fibronectin domains 8-11 [2]: did not suppress cell adhesion
adhesion of α4-K562 cells to immobilized wt sPLA2-IIA [3]: better than mock-transfected K562 cells
proliferation of mock-transfected K562 cells [4]: did not induce proliferation
ERK1/2 activation in U937 cells [5]: induced
binding to soluble αvβ3 [6]: bound
proliferation of monocytic U937 cells [7]: induced robust proliferation
Kd [8]: 200 nM
adhesion of U937 cells to VCAM-1 [9]: suppressed adhesion
